From PMC6101569

Columns and labels:
[1] = biological target: APLF^AD labelled with the fluorescent tag NT-647 (human) (UniProt Q8IW19); assay: MST
[2] = biological target: APLF acidic domain (APLF^AD), Homo sapiens APLF residues 450-511, wild type (human) (UniProt Q8IW19); assay: cross-linking
Chain of APLF acidic domain (APLF^AD), Homo sapiens APLF residues 450-511, wild type (human) (Q8IW19 450-511): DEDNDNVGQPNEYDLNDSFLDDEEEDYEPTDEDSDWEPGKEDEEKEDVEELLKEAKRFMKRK

Chain of APLF^AD labelled with the fluorescent tag NT-647 (human) (Q8IW19 450-511): as above

| KD of the secondary binding over KD of the high-affinity binding (fold) [1] [fold] | KD,1 (high-affinity binding event, sequential-binding model) [1] [nM] | stoichiometry N [2] | Substance |
| --- | --- | --- | --- |
| 50 | 1400 | – | (H3-H4)2 histone tetramer from Drosophila melanogaster (from UniProt P02299 2-136; P84040 2-103) (complex) |
| – | 800 | 1 | H2A-H2B histone dimer from Drosophila melanogaster (from UniProt P84051 2-121; P02283 2-123) (complex) |
